Experimental data from the nanobody polyreactivity screen of Harvey et al. (2022).

Assay: yeast display, Sf9 membrane polyspecificity reagent, FACS + sequencing; frameworks hold sequencing errors
Procedure, shortened: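 Sorting gates, low and high (top ~1%), were placed on anti-HA fluorescence to track expression and on streptavidin fluorescence to track reagent binding. A clone's polyreactivity label is taken from the gate it came out of. The reagent was 10% biotinylated, detergent-solubilized Sf9 membrane, applied for 1 hour at 4 °C to galactose-induced yeast display cells.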

Sequence | polyreactivity (PSR sort gate)
QVQLVESGGGLVQAGGSLRLSCAASGRIFPLYAMGWYRQAPGKERELVAAITSSGGSTYYPDSVKGRFTISRDNAKNTVYLQMNSLKPEDTAVYYCAADYSVYWLDYGYWGQGTQVTVSS | low polyreactivity
QVQLVESGGGLVQSGGSLRLSCAASGRTFNANVMGWYRPAPGKERELVAAITYSGGSTYYADSVKGRFTISRDNAKNTVYLQMNSLKPEDTAVYYCAADYVYTFYYWGQGTQVTVSS | low polyreactivity
QVQLVESGGGLVQAGGSLRLSCAASGRTFWYYAMGWYRQAPGKERELVARISTGGSTNYADSVKGRFTISRDNAKNTVYLQMNSLKPEDTAVYYCAARPVWRRPSKFDYWGQGTQVTVSS | high polyreactivity
QVHLVESGGGLVQAGGSLRLICAASGSIYTPNAMGWYRQAPGKETELVAAISSSSDRTYYADSVTGRFTISRDNAKNTFYLQMNSLKPEDTEVYYCNADLRGHGRGTDQYIFDYWGQGTQVTVSS | high polyreactivity
QVQLVESGGGLVQAGGSLRLSCAASGRTFYFNAMGWYRQAPGKERELVAGISGDGSTNYADSVKGRFTISRDNAKNTVYLQMNSLKPEDTAVYYCAARIRPGYRTWYYSWGQGTQVTVSS | low polyreactivity
QVQLVESGGGLVQAGGSLRLSCAASGITFYEYAMGWYRQAPGKERELVATITSGGNTNYADSVKGRFTISRDNAKNTVYLQMNSLKPEDTAVYYCNKEWDGDGYTDDWDYDYWGQGTQVTVSS | low polyreactivity
QVQLVESGGGLVQAGGSLRLSCSASGSTFDTYAMGWYRKAPGKERELVAAISRSGGSTYYADSVKWRFTISRDNAKNTVYLQMNSLKPEDTAVYFCNALSGDLAGDYWGQGTQVTVSS | high polyreactivity
QVQLVESGGGLVQAGGSLRLSCAASGTTIGVNAMGWYRQAPGKERDLVAAISRRGASTYYADSVKGRFTISLDNAKNTVYLQMNSLKPEETAVYYCAKAQVHDYIVSMDRYGYWGQGTQVTVSS | low polyreactivity
QVQLVESGGGLVQAGGSLRLSCAASGRIFVYNVMGWYRQAPGKERELVAAISWGTGSTYADSVKGRFTISRDNAKNTVYLQMNSLKPEDTAVYYCAAPSPRSRAYTYRGDYWGQGTQVTVSS | low polyreactivity
QVQLVESGGGLVQAGGSLRLSCAASGRIFSWYDMGWDRQAPGKERELVAAISSGGSTIYADSVKGRFTISRDNAKQTVYLQMNSLKPEDTAVSYCNKSPSWWRYKTGLDYWGQGTQVTVSS | high polyreactivity
QVQLVESGGGLVQAGGSLRLSCAASGSIFVYYAMGWYRQAPGKERELVAAISSTGGRTYYADSVKGRFTISRDNAKNTVYLQMNSLNPEDTAVYYCAKDYGSYFIFLSYPRSRYDYWGQGTQVTVSS | low polyreactivity
QVQLVESGGGLVQAGGSLRLSCAASGIILGKNAMGWYRQAPGNERELVASITSGAGITYYADSVKGRFTISRDNAKNTVNLQINSLKPEDTAVYYCAADWSGDYFTDGYWGQGPQVTVSS | low polyreactivity
QVQLVESGGGLDQAGGSLRLSCAASGIIPYYYVMGWYRQAPGKERELVAAINRSGTSTYYADSVKGRFTISRDNAKNTVYLQMNSLKPEDTAVYYCAAERYWSGGVFDYDYWGQGTQVTVSS | high polyreactivity
QVQLVESGGGLVQAGGSLRLSCAASGITFWLYAMGWSRQAPGKERELVAGIDNGGSTTYADSVKGRFTISRDNAKNTVYLQMNSLNPEDTAVYYCAATFEWDPVYPYNGFIYDYWGQGTQVTVSS | high polyreactivity
QGQLVESGGGLVQAGGSLRLSCAASGRTFYANAMGWYRQAPGKERELVAAISTGGDGTYYADSVKGRFTISRDNAKNTVYLQMNSLKPEDAAVYYCAVRHRASGILYDYWGQGTQVTVSS | low polyreactivity
QVQLVESGGGIVQAGGSLRLSCAASGITFFYYAMGWYRQAPGKERELVASISSGGSTYYADSVKGRFTISRDNAKNTVYLQMNSLKPEDTAVYYCAAPTGWYPAYGEYEYWGQGTQVTVSS | low polyreactivity

Sequence | polyreactivity (PSR sort gate)
QVQLVESGGGLVQAGGSLRLSCAASGSIFNRYAMGWYRPAPGKEREFVARISKRGGGTYYADSVKGRFTISRDNAKNTVYLQMNSLKPEDTAVYYCAARAYDHTGHVGFDYWGQGTQVTVSS | high polyreactivity
QDQLVESGGGLVQAGGSLRLSCAASGFIFENYTLGWYRLAPGKERELVAAITSSGGSTYYADSVKGRFTISRDNAKNTVYLPLNSLNPDVTAVYYCNKRWFRDYDYWGQGTQVTVSS | high polyreactivity
QVQLVESGGGLVQAGGSLRLSCAASGRTFRSNAMGWYRQAPGKERELVAAISKRGASTYYADSVKGRFTISRDNAKNTVYLQMNSLKPEVTAVYYCNTGAAKHAYDYWGQGTQVTVSS | high polyreactivity
QVQLQERGGGLMQAGGSQRLSCAASGSISYYSDMGWYRQAPGTEREFVAGIGYGTTTNYADSVKGRFTTSRDNAKNTVDLQMISMKPEDTAVYYCAAYQGNGYEFYYWGQGTQVTVRS | low polyreactivity
QVQLVESGGGLVQAGGSLRLSCAASGGTFAWNAMGWYRQATGKERELVAAISFDGTSTYYADSVKGRFTISRDNAKNTVYLQMNSLKPEDTAVYYCNRVYLGYFRYDYWGQGTQVTVSS | high polyreactivity
QVQLVESGGGLVQAGGSLRLSCAASGFTFSFNAMGWYRQAPGKERELVAAITTADSTYYADSVKGRFTISRDNAKNTVYLQMNSLKPEDTAVYYCAADSYYYGYQGQTQYGWVWYDYWGQGTQVTVSS | low polyreactivity
QVQLVESGGGLVQAGGSLRLSCAASGIISTYYVMGWYRQAPGKERELVAAITGGGTYYADSVKGRFTISRDNAKNTVYLQMNSLKPEDTAVYYCAVDGTYAYGYSRDYDYWGQGTQVTVSS | low polyreactivity
QVQLVESGGGLVQAGGSLRLSCAASGSTFWVYTMGWYRQAPGKERELVAAITLNGGSTYYADSVKGRFTISRDNAKNTVYLQMNSLKPEDTAVYYCAAYVFPFDKSYHYVGYDYWGQGTQVTVSS | low polyreactivity
QVQLVESGGGLVQAGGSLRLSCAASGRSFWAYAMGWYRQETGTERELVADITTSGGSTNYADSVKGRFTISRDNAKNTVYLQMNSLKPEDTAVYYCNADPTYHVVNCVGYWGHGTQVTVSS | low polyreactivity
QVQLVESGGGLVQAGGSLRLSCAASGSILWDNAMGWYRQAPGKERELVATISVSGGGTYYADSVKGRFTISLDNAKNTVYLQMNSLKPEDTSVYYCNARYGNESQGWEDYWGQGTQVTVSS | low polyreactivity
QVQLVESGGGLVQAGGSLRLSCAASGSNFGWYAMGWYRQAPGKERELVAAITFSSVSTYYADSEKGRFTISRDNAKNTVYLQMNSLKPEDTAVYYCAAVVYYTFDYWGLGTQVTVSS | low polyreactivity
QVQLVESGGGLVQAGGSLRLSCAASGSTFRFNAMGWYRQAPGKERELVAAITGIGGITYYADSVKGRFTISRDNAKNTVYLQMNSLKPEDTAVYYCNAVAARYSVRNGYSTHYDYWGQGTQVTVSS | high polyreactivity
QVQLVESGGGLVQAGGSLRLSCAATGFTFSRNTMGWYRQAPGKERELGARITKRGGTTYYADSVKGRFTISRDNAKNTVYLQMNCLKPEDSAVYYCAAATQNPGSDYWGQGTQVTVSS | high polyreactivity
QVQLVESGGGLVQAGGSLRLSCAASGRTSVVNAMGWYRQAPGKERELVAAITSGGSTHYADSVKGRFTISRDNAKNTVYLPMNSLKPEDTAVYYCNARDRRRTNLLDYWGQGTQVTVSS | low polyreactivity
QLQLVESGGGLVQAGGSLPLTCAASGRTFARNAMGWYRQAPGKERELVARISRRAGSTYYADSVKGRFTISRDNAKNTVYLQMNSLKPAETAVYYCNAGPPYSYARDYWGQGTQVTVSS | high polyreactivity
